± gives the uncertainty stated by the source.
Assay: amyloid nucleation score (Sup35N fusion, yeast selection) (log enrichment); library NNK2; higher = more nucleation; inactive = no reads after selection
Procedure, shortened: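 Sup35N was fused to peptides of 20 random codons and expressed in psi-negative yeast, which were induced with 100 μM copper sulfate for 24 hours and then grown on medium lacking adenine and uracil for 7 days at 30°C. Plasmid inserts from input and output were sequenced on Illumina. The nucleation score is the DiMSum log enrichment of output over input reads, centred on the mode score of non-aggregating sequences. Sequences with under 100 input reads were left out, and random libraries had three technical output replicates.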

Row | Substance | amyloid nucleation score
1 | GCIAIIDWMNLTLFTLLLSS | -0.375 ± 0.76
2 | GCLLRCDKRGGLRPSW | 0.66 ± 0.24
3 | GCNLFYCLTRSSIETNTSIS | 4.3 ± 0.095
4 | GCVTSGMLMTLIIH | -0.218 ± 0.48
5 | GDFSFCTHLLSYNLRGWPVV | 0.192 ± 0.74
6 | GDKLIEGRASGKGNWILERG | 1.19 ± 0.34
7 | GDYTYRG | 0.773 ± 0.66
8 | GECRRWKFGLWENVPDMSIK | 0.177 ± 0.48
9 | GELDGNRERILRRRGTMDYQ | 2.56 ± 0.091
10 | GELRIYRLGHCVCVSMSLPA | 1.27 ± 0.36
11 | GEMYV | -0.31 ± 1
12 | GEPLNGSAGLVGH | 0.234 ± 0.34
13 | GEQSDFSSSYSYLLWKVWDG | -1.2 ± 0.36
14 | GEYINAWSLNIV | -0.683 ± 0.64
15 | GFCPLVRPSCESFRLQERLV | -0.303 ± 0.63
16 | GFEQRGIRVMFVPYDINFSV | 6.269 ± 0.031
17 | GFIVRMDTMLSSALASYCRL | -0.25 ± 0.63
18 | GFRFLLKLLFGFKKV | inactive
19 | GFSLC | 0.541 ± 0.66
20 | GFSSNLVVLKKPS | -0.249 ± 1.1
21 | GFVTDFIIKSI | -1.07 ± 0.64
22 | GFWVDQNSDPNWVSQAPDFM | inactive
23 | GFYIKVFNSEWYALNLDVRL | 4.67 ± 0.075
24 | GGCVYSVTLFFTWTEWGKAK | -0.516 ± 0.79
25 | GGDSECGYNGVFVGYAVFWC | 0.128 ± 0.29

Row | Substance | amyloid nucleation score
26 | GGGNCKKGYGCDVDCYESEG | -0.735 ± 0.56
27 | GGLIE | -0.817 ± 1.1
28 | GGLWTGLVSASKEFSK | inactive
29 | GGPCDRGTFMMCDPWSFSLL | 0.513 ± 0.39
30 | GGYIQRNNDNRFAEQV | inactive
31 | GHFAF | -0.159 ± 1.1
32 | GHFRFEHCVSVSLSSIFSNE | 1.55 ± 0.11
33 | GHVTYLVTAPHV | 2.89 ± 0.14
34 | GIFGMC | 0.366 ± 0.56
35 | GIGMRQYMNT | 0.823 ± 0.32
36 | GIIDLHAYLFKVHEWAHPHR | 6.07 ± 0.063
37 | GIIRSWNIRPLEMPKE | 0.176 ± 0.27
38 | GILGQGDYYLRN | -0.422 ± 1
39 | GIMQCFGSMRMQWCNSDKEC | 5.021 ± 0.037
40 | GIPVMPTDSRGTPGVMVFEY | -1.25 ± 1
41 | GISVLRQTVFDLSIFIPHTS | 4.42 ± 0.055
42 | GIVRGYMLSHLFV | 0.262 ± 0.25
43 | GKFCIFASMADLMEW | -0.491 ± 0.42
44 | GKGDVGESRADCLAYSRRMS | 0.868 ± 0.45
45 | GKGWKSVVYSNMGRVSGCCK | 2.81 ± 0.12
46 | GKINITAFAWLKAFADRHWI | 0.705 ± 0.8
47 | GKMGYFEWGVLDYIVRLSGT | 0.851 ± 0.27
48 | GKRFNFVTCPPVLRR | -0.088 ± 0.34
49 | GKSYVYIRLGIFSMWASHRR | 2.72 ± 0.08
50 | GKYMEDYNAENQNPSTMMES | -0.01 ± 0.47

Row | Substance | amyloid nucleation score
51 | GLCKFKQVCTNSVGNYVGYF | -2.18 ± 0.62
52 | GLCMYGVTAKRMLVVWRERG | 8.804 ± 0.046
53 | GLDPRCNNTPVTLYVLSPWV | -0.588 ± 1.1
54 | GLGAWFEI | 0.485 ± 0.29
55 | GLLVELWSLLIIRYNLSAYL | -0.841 ± 0.48
56 | GLMRVRYESHRMKAGSLVSR | 1.89 ± 0.36
57 | GLNCTIV | 1.67 ± 0.32
58 | GLQSVDGLQNTYLGSNAVVD | 0.87 ± 0.26
59 | GLSGFSPQFASATIAQSIP | 1.36 ± 0.23
60 | GLSRFA | -0.582 ± 1.1
61 | GLTLMWALFGSVYGLRSGMG | 0.89 ± 0.28
62 | GLWLRFVCSIYFLMYIVHIN | inactive
63 | GLYIEKARQRYPRSQHLIAM | -0.419 ± 0.49
64 | GLYTKT | 0.028 ± 0.14
65 | GMGSVCGIIEYAWTA | 0.627 ± 0.3
66 | GMNQCCPD | -0.455 ± 0.61
67 | GMPQESHSYPLYEMLLGRVG | -0.064 ± 0.3
68 | GMRWSFGVLASRSFCVKWCP | 5.57 ± 0.09
69 | GMVDLGVGSWCMEP | 0.893 ± 0.15
70 | GMVRRQVTLMSSSDRAI | -1.07 ± 1.1
71 | GMYYPREIEFLAFWSTTRGR | -0.956 ± 1
72 | GNFMTECLQARICGPDGEKK | 5.12 ± 0.095
73 | GNKLYFCSFAWLEVFKFKDL | 1.86 ± 0.082
74 | GNLDRYRYLETDKSGAMLGV | 4.3 ± 0.064
75 | GNNNMRPIALCTLSMGGRTF | -0.575 ± 0.49

Row | Substance | amyloid nucleation score
76 | GNRDF | inactive
77 | GNTGSGSDSKLYLAMP | -0.076 ± 0.79
78 | GNVFEHIQSMIRDSFEEHSG | 0.889 ± 0.2
79 | GNVRVECANLYRAVLPDMGH | -0.167 ± 0.63
80 | GNYNLALDLPLTFERFRQSH | -0.736 ± 0.44
81 | GPWGGWSVT | inactive
82 | GQAHRFGTHLRISAGVVPPV | 0.01 ± 0.32
83 | GQLSFCGVVYDISRQEPTIF | inactive
84 | GQWGETY | 0.476 ± 0.25
85 | GQYVQCNMSCVYVFLQWQRR | 6.262 ± 0.033
86 | GRCPVSRVHGIQRSGDGSVI | -0.383 ± 1.1
87 | GRCYDFCHFYKQGRYSLGWV | -1.06 ± 0.63
88 | GRGADKLTIG | 0.288 ± 0.36
89 | GRMLKFLCWRWVVLMSGAPG | inactive
90 | GRTYNVTEFLKSRTRWGSPL | 1.19 ± 0.59
91 | GRVCSRSFL | 2.1 ± 0.085
92 | GRVFEK | 4.93 ± 0.077
93 | GRVMMEC | 0.465 ± 0.33
94 | GRWVST | 1.29 ± 0.43
95 | GRYILFFSRSEFDFKIVQSV | 2.23 ± 0.21
96 | GSCRHHRWGLVRGMFCVSAL | 1.17 ± 0.42
97 | GSDFQFRSSATVLSAVEFLL | -0.227 ± 0.35
98 | GSGIIHTVGLGV | -0.153 ± 0.65
99 | GSLHVNGVVHVSDCHVTY | 1.34 ± 0.53
100 | GSLMRTFHILSIAHSTSWCM | 0.381 ± 0.19

Row | Substance | amyloid nucleation score
101 | GSLYVLAMLSGYVAKPYKIY | -0.072 ± 0.79
102 | GSPAVGEGG | 0.697 ± 0.81
103 | GSQYRVWISS | -0.214 ± 0.55
104 | GSRVWFEIINL | 6.013 ± 0.026
105 | GSSRLKGDGIVLVKCSWRYM | 1.13 ± 0.38
106 | GSWHDWHRCRSLRYDQTNTS | -0.185 ± 0.39
107 | GTCCARAIGRYGYFNCRHRM | -0.017 ± 0.34
108 | GTCFQTINMGGCLIGGPG | 2.69 ± 0.14
109 | GTFQSYHDTPEECSFRGKSV | -0.114 ± 1.1
110 | GTGLNKHNNSC | 0.36 ± 0.19
111 | GTILPCNWNNLLYWVVGENA | 0.438 ± 0.25
112 | GTLPA | -0.747 ± 0.48
113 | GTMPNGCKS | 0.541 ± 0.74
114 | GTPDYGCSSNVYCD | inactive
115 | GTRYSLCTRCG | 0.766 ± 0.5
116 | GVASNGKGFNTFMCAHCY | -0.225 ± 0.41
117 | GVDFTWDRGCIGGRGCSSRY | 5.956 ± 0.054
118 | GVFYDKYRGSVWSEDCKLWT | inactive
119 | GVGVGLYKFLTPCFYGEDDE | 0.594 ± 0.57
120 | GVKWSVSFKNWHYWKSMSVV | 1.26 ± 0.66
121 | GVMRSCCEIWTFSIVFRMYT | 0.604 ± 0.31
122 | GVPCRWTVPNANGSSVWSLR | 0.776 ± 0.3
123 | GVSASQSTMLNCDNVTEDVS | 0.753 ± 0.22
124 | GVSGIEVVFYMLSKWGKHER | 4.13 ± 0.054
125 | GVSIS | -0.116 ± 0.76

Row | Substance | amyloid nucleation score
126 | GVSLLVSTSHGFVREPQVTS | 0.526 ± 0.66
127 | GVVGSFPRPTSSRGRLDYCN | -0.169 ± 0.55
128 | GVVHKDELRGLKVRESSEMG | 0.271 ± 0.48
129 | GVWICFRSAMNSIKACFNNR | 5.395 ± 0.04
130 | GWEYYSCGENWSLSPLSGYN | -0.969 ± 0.34
131 | GWFKESVFLGFWVRISNSQV | -1.75 ± 1.1
132 | GWQWRWLHYRSVRINEEMVS | 0.342 ± 0.34
133 | GWWVCWVL | -1.07 ± 1.1
134 | GYCPLGAPCAGM | 1.23 ± 0.2
135 | GYCSDGWFAECTEWEAPVSR | 0.343 ± 0.64
136 | GYHDRLSPSQTLPPTRNVLC | 0.312 ± 0.8
137 | GYLVRM | -0.186 ± 0.3
138 | GYLVTLWD | 1.03 ± 0.49
139 | GYLYN | -1.32 ± 1.1
140 | GYQRNYSFAVSMEARSVVPG | 4.12 ± 0.058
141 | GYSDYVSYVKGC | 0.182 ± 0.8
142 | GYTIPLYQYKNWGLE | -0.515 ± 1
143 | GYTVCRLGCRFVMSLWNILV | -0.221 ± 1.1
144 | GYWEAFFQLGASPYAGRSRG | -0.13 ± 0.76
145 | HAAGSLHMDYLV | 0.122 ± 1.1
146 | HAILPRCTFHSPMVYALYFT | 0.58 ± 0.65
147 | HATSMCNWAVFIECFFFGKL | 5.39 ± 0.065
148 | HCLVIFNEIYRL | 7.137 ± 0.071
149 | HCMLEYRMIVCVLVYAGYNM | 0.448 ± 0.47
150 | HCRKQIMMGDFKIQGNRGVG | 0.448 ± 0.66

Row | Substance | amyloid nucleation score
151 | HDDRFSCECYSSDSPESQGL | -0.105 ± 1.1
152 | HDVSVLYEPTAAGWNRLLQT | 0.262 ± 0.54
153 | HDYRVTYDVF | -1.24 ± 1.1
154 | HEEVLLHGLVCKLHRMKR | 0.474 ± 0.26
155 | HEYVAALGWMAEGLSKFLKR | 0.579 ± 0.8
156 | HFIFVAYRWVSNNAELDLNF | -0.724 ± 0.63
157 | HFSVMCTTRSKRLSIKPEWR | 4.41 ± 0.097
158 | HFVNMHH | -0.213 ± 0.76
159 | HGCLYFRFLNALSSFGGYRA | -1.7 ± 1
160 | HGETTTGILIELFVIWYVNS | inactive
161 | HGGPS | -0.571 ± 0.38
162 | HGLYCYPGYSDQCVTFVHGY | inactive
163 | HIGCYAPASISPLLNGEH | 0.458 ± 0.8
164 | HIICSRHSNEAKLRMKSKAI | -1.03 ± 0.61
165 | HIVVTKTWAGQRHVQFIM | 1.07 ± 0.26
166 | HKGCIIVWKTKRGLCRSARC | -0.384 ± 0.79
167 | HKGYCVRIIT | -0.335 ± 0.26
168 | HKKCSRKKFPAPRPSRTNTS | -0.605 ± 0.48
169 | HKRCVITLLWADL | 0.344 ± 0.41
170 | HKVFISLLCWEKMQKGLTQ | -0.295 ± 0.55
171 | HLCGGHGLVFFWGFVTMKCG | 0.369 ± 0.8
172 | HLESAWSRVSTDRCTNTWTV | 0.506 ± 0.45
